The data set has as its system Escherichia coli TOP10. The data set is described as follows: shrunken log2 fold change of peptide-encoding DNA abundance (4.5 h post-induction vs induction); higher = less antimicrobial activity (less host growth inhibition). As to conditions: time post-induction: 4.5 h; library: site-saturation at positions 5, 18, 19, 20.
In the case of RRIRLRPPRLPRPRPRPHDCPRP, the “shrunken log2 fold change” value was -0.0305.

Take RRIRSRPPRLPRPRPRPGFSPRP: the “shrunken log2 fold change” value is -0.0153.

For the sequence RRIRSRPPRLPRPRPRPHNIPRP, the “shrunken log2 fold change” value is -0.211.

For RRIRYRPPRLPRPRPRPEFKPRP, the “shrunken log2 fold change” value is 0.0136.

Turning to RRIRIRPPRLPRPRPRPSLEPRP, the “shrunken log2 fold change” value is -0.05.

As for RRIRDRPPRLPRPRPRPYNVPRP, the “shrunken log2 fold change” value is -0.0265.

In the case of RRIRGRPPRLPRPRPRPHFWPRP, the “shrunken log2 fold change” value worked out at 0.428.

As to RRIRHRPPRLPRPRPRPRRSPRP, the “shrunken log2 fold change” value was 0.0555.

Turning to RRIRLRPPRLPRPRPRPCHTPRP, the “shrunken log2 fold change” value is -0.173.

Take RRIRERPPRLPRPRPRPFNVPRP: the “shrunken log2 fold change” value was -0.0305.

On to RRIRQRPPRLPRPRPRPRMAPRP, for which the “shrunken log2 fold change” value worked out at 0.0146.

For RRIRTRPPRLPRPRPRPFDRPRP, the “shrunken log2 fold change” value is 0.0237.

In the case of RRIRIRPPRLPRPRPRPVFFPRP, the “shrunken log2 fold change” value is -0.107.

As for RRIRHRPPRLPRPRPRPILGPRP, the “shrunken log2 fold change” value was -0.0179.

Turning to RRIRCRPPRLPRPRPRPFDTPRP, the “shrunken log2 fold change” value is -0.192.

For RRIRGRPPRLPRPRPRPSHCPRP, the “shrunken log2 fold change” value amounted to 0.204.

With RRIRLRPPRLPRPRPRPHKNPRP, the “shrunken log2 fold change” value is -0.256.

Turning to RRIRERPPRLPRPRPRPWDTPRP, the “shrunken log2 fold change” value was -0.623.

Consider RRIRVRPPRLPRPRPRPADKPRP, for which the “shrunken log2 fold change” value was -0.0503.

In the case of RRIRIRPPRLPRPRPRPSVRPRP, the “shrunken log2 fold change” value was -0.238.

Regarding RRIRWRPPRLPRPRPRPPPHPRP, the “shrunken log2 fold change” value is 0.721.

For RRIRKRPPRLPRPRPRPQALPRP, the “shrunken log2 fold change” value came to 0.228.

As to RRIRARPPRLPRPRPRPRWWPRP, the “shrunken log2 fold change” value turned out to be 0.199.

On to RRIRERPPRLPRPRPRPYSVPRP, for which the “shrunken log2 fold change” value was -0.114.

As to RRIRCRPPRLPRPRPRPVTRPRP, the “shrunken log2 fold change” value was determined as 0.197.

Take RRIRPRPPRLPRPRPRPTGMPRP: the “shrunken log2 fold change” value was found to be 0.141.

For RRIRPRPPRLPRPRPRPMGIPRP, the “shrunken log2 fold change” value was determined as 0.21.

As for RRIRNRPPRLPRPRPRPIGKPRP, the “shrunken log2 fold change” value is -0.0902.

With RRIRCRPPRLPRPRPRPGTEPRP, the “shrunken log2 fold change” value turned out to be 0.078.

RRIRRRPPRLPRPRPRPWLKPRP: the “shrunken log2 fold change” value amounted to 0.127.

RRIRKRPPRLPRPRPRPMYDPRP: the “shrunken log2 fold change” value is -0.127.

For RRIRERPPRLPRPRPRPRQTPRP, the “shrunken log2 fold change” value came out at 0.253.

As to RRIRGRPPRLPRPRPRPLDVPRP, the “shrunken log2 fold change” value was found to be 0.326.

Consider RRIRERPPRLPRPRPRPWIDPRP, for which the “shrunken log2 fold change” value is -0.0474.

On to RRIRGRPPRLPRPRPRPGFMPRP, for which the “shrunken log2 fold change” value amounted to 0.488.

With RRIRWRPPRLPRPRPRPKSPPRP, the “shrunken log2 fold change” value came out at 0.819.

Take RRIRKRPPRLPRPRPRPQWGPRP: the “shrunken log2 fold change” value was 0.227.

On to RRIRRRPPRLPRPRPRPWRDPRP, for which the “shrunken log2 fold change” value is -0.0485.

As to RRIRARPPRLPRPRPRPSVFPRP, the “shrunken log2 fold change” value was determined as 0.461.

For the sequence RRIRGRPPRLPRPRPRPGVGPRP, the “shrunken log2 fold change” value amounted to 1.11.

As for RRIRNRPPRLPRPRPRPCYNPRP, the “shrunken log2 fold change” value was -0.124.

Turning to RRIRFRPPRLPRPRPRPRKKPRP, the “shrunken log2 fold change” value came to 0.14.

As to RRIRGRPPRLPRPRPRPFRSPRP, the “shrunken log2 fold change” value was -0.599.

On to RRIRLRPPRLPRPRPRPVLRPRP, for which the “shrunken log2 fold change” value is -0.113.

Take RRIRGRPPRLPRPRPRPKCPPRP: the “shrunken log2 fold change” value amounted to 0.625.

RRIRGRPPRLPRPRPRPGLRPRP: the “shrunken log2 fold change” value was determined as 0.875.

On to RRIRGRPPRLPRPRPRPIYNPRP, for which the “shrunken log2 fold change” value was -0.185.

As to RRIRVRPPRLPRPRPRPTANPRP, the “shrunken log2 fold change” value came out at 0.221.

In the case of RRIRYRPPRLPRPRPRPIEEPRP, the “shrunken log2 fold change” value came to 0.00911.

With RRIRYRPPRLPRPRPRPTSIPRP, the “shrunken log2 fold change” value is -0.656.

Consider RRIRCRPPRLPRPRPRPCQGPRP, for which the “shrunken log2 fold change” value was -0.0713.

For RRIRFRPPRLPRPRPRPGVGPRP, the “shrunken log2 fold change” value worked out at 0.358.

On to RRIRYRPPRLPRPRPRPPHMPRP, for which the “shrunken log2 fold change” value was -0.656.

With RRIRGRPPRLPRPRPRPRSSPRP, the “shrunken log2 fold change” value amounted to 0.128.

For RRIRHRPPRLPRPRPRPQHNPRP, the “shrunken log2 fold change” value was 0.22.

Consider RRIRCRPPRLPRPRPRPLPEPRP, for which the “shrunken log2 fold change” value is 0.397.

Regarding RRIRARPPRLPRPRPRPGHDPRP, the “shrunken log2 fold change” value is 0.215.

RRIRVRPPRLPRPRPRPSNGPRP: the “shrunken log2 fold change” value is -0.219.

On to RRIRMRPPRLPRPRPRPELKPRP, for which the “shrunken log2 fold change” value came to 0.95.

For the sequence RRIRCRPPRLPRPRPRPFYNPRP, the “shrunken log2 fold change” value was -1.05.

For RRIRWRPPRLPRPRPRPAEQPRP, the “shrunken log2 fold change” value was -0.00651.

In the case of RRIRYRPPRLPRPRPRPTEQPRP, the “shrunken log2 fold change” value was -0.0161.

RRIRFRPPRLPRPRPRPRDRPRP: the “shrunken log2 fold change” value worked out at 0.387.

Take RRIRRRPPRLPRPRPRPLSDPRP: the “shrunken log2 fold change” value worked out at 0.144.

With RRIRERPPRLPRPRPRPWMVPRP, the “shrunken log2 fold change” value was -0.685.

In the case of RRIRLRPPRLPRPRPRPTAMPRP, the “shrunken log2 fold change” value worked out at 0.0595.

For RRIRVRPPRLPRPRPRPWCMPRP, the “shrunken log2 fold change” value was -0.468.

RRIRNRPPRLPRPRPRPDVDPRP: the “shrunken log2 fold change” value was 0.0446.

With RRIRQRPPRLPRPRPRPAQRPRP, the “shrunken log2 fold change” value came out at 0.302.

For the sequence RRIRHRPPRLPRPRPRPNLGPRP, the “shrunken log2 fold change” value was -0.00355.

With RRIRNRPPRLPRPRPRPTEWPRP, the “shrunken log2 fold change” value came to 0.0839.

Take RRIRYRPPRLPRPRPRPHMFPRP: the “shrunken log2 fold change” value is 0.0171.

In the case of RRIRKRPPRLPRPRPRPPLPPRP, the “shrunken log2 fold change” value is 0.74.

As to RRIRVRPPRLPRPRPRPVPFPRP, the “shrunken log2 fold change” value is -0.115.

As for RRIRLRPPRLPRPRPRPNRHPRP, the “shrunken log2 fold change” value is -0.312.

In the case of RRIRRRPPRLPRPRPRPTCYPRP, the “shrunken log2 fold change” value was -0.242.

Turning to RRIRYRPPRLPRPRPRPGDRPRP, the “shrunken log2 fold change” value turned out to be 0.196.

Take RRIRKRPPRLPRPRPRPLDNPRP: the “shrunken log2 fold change” value was found to be 0.0829.

As for RRIRNRPPRLPRPRPRPDRLPRP, the “shrunken log2 fold change” value was -0.038.

Consider RRIRQRPPRLPRPRPRPIPPPRP, for which the “shrunken log2 fold change” value worked out at 0.0581.

As to RRIRARPPRLPRPRPRPTINPRP, the “shrunken log2 fold change” value is -0.00779.

Turning to RRIRYRPPRLPRPRPRPVGTPRP, the “shrunken log2 fold change” value was 0.238.

For the sequence RRIRCRPPRLPRPRPRPVHSPRP, the “shrunken log2 fold change” value was -0.107.

On to RRIRFRPPRLPRPRPRPLDVPRP, for which the “shrunken log2 fold change” value was -0.153.

As to RRIRMRPPRLPRPRPRPCTSPRP, the “shrunken log2 fold change” value was 0.0228.

For RRIRTRPPRLPRPRPRPRSVPRP, the “shrunken log2 fold change” value was -0.272.

As for RRIRWRPPRLPRPRPRPEEMPRP, the “shrunken log2 fold change” value stood at 0.013.

On to RRIRRRPPRLPRPRPRPHWDPRP, for which the “shrunken log2 fold change” value is -0.0203.

As to RRIRLRPPRLPRPRPRPLRTPRP, the “shrunken log2 fold change” value turned out to be 1.18.

As for RRIRKRPPRLPRPRPRPFREPRP, the “shrunken log2 fold change” value was 0.223.

As for RRIRMRPPRLPRPRPRPEKKPRP, the “shrunken log2 fold change” value came out at 0.104.

As to RRIRHRPPRLPRPRPRPINMPRP, the “shrunken log2 fold change” value was -0.244.

For the sequence RRIRERPPRLPRPRPRPKHHPRP, the “shrunken log2 fold change” value is -0.217.

On to RRIRWRPPRLPRPRPRPYPAPRP, for which the “shrunken log2 fold change” value was -0.0239.

Consider RRIRYRPPRLPRPRPRPGRQPRP, for which the “shrunken log2 fold change” value was -0.031.

RRIRPRPPRLPRPRPRPYGIPRP: the “shrunken log2 fold change” value is -0.533.

As for RRIRCRPPRLPRPRPRPCGQPRP, the “shrunken log2 fold change” value was 0.143.

RRIRWRPPRLPRPRPRPFDQPRP: the “shrunken log2 fold change” value was -0.102.

In the case of RRIRFRPPRLPRPRPRPQDYPRP, the “shrunken log2 fold change” value came to 0.0577.

For the sequence RRIRLRPPRLPRPRPRPSVHPRP, the “shrunken log2 fold change” value was -0.61.

For the sequence RRIRGRPPRLPRPRPRPDHQPRP, the “shrunken log2 fold change” value was determined as 0.12.

On to RRIRNRPPRLPRPRPRPLAIPRP, for which the “shrunken log2 fold change” value was found to be 0.0449.

For the sequence RRIRNRPPRLPRPRPRPIRNPRP, the “shrunken log2 fold change” value is -0.422.

Consider RRIRFRPPRLPRPRPRPEFTPRP, for which the “shrunken log2 fold change” value was 1.75.

Consider RRIRTRPPRLPRPRPRPSCIPRP, for which the “shrunken log2 fold change” value was -0.44.

In the case of RRIRARPPRLPRPRPRPRRDPRP, the “shrunken log2 fold change” value was determined as 0.656.

In the case of RRIRMRPPRLPRPRPRPFWCPRP, the “shrunken log2 fold change” value worked out at 0.314.

Take RRIRNRPPRLPRPRPRPFAIPRP: the “shrunken log2 fold change” value was -0.0909.

Consider RRIRGRPPRLPRPRPRPGGQPRP, for which the “shrunken log2 fold change” value was found to be 0.672.

Take RRIRNRPPRLPRPRPRPKRFPRP: the “shrunken log2 fold change” value worked out at 0.0343.

As for RRIRERPPRLPRPRPRPPMVPRP, the “shrunken log2 fold change” value was -0.45.

Regarding RRIRERPPRLPRPRPRPSILPRP, the “shrunken log2 fold change” value was -0.623.

Take RRIRVRPPRLPRPRPRPFMAPRP: the “shrunken log2 fold change” value was -0.128.

Turning to RRIRCRPPRLPRPRPRPFAQPRP, the “shrunken log2 fold change” value came out at 0.00363.

Regarding RRIRNRPPRLPRPRPRPEISPRP, the “shrunken log2 fold change” value was -0.126.

Turning to RRIRRRPPRLPRPRPRPWGMPRP, the “shrunken log2 fold change” value was determined as 0.137.

On to RRIRHRPPRLPRPRPRPEYVPRP, for which the “shrunken log2 fold change” value is -0.0134.

Consider RRIRKRPPRLPRPRPRPCYHPRP, for which the “shrunken log2 fold change” value is -0.339.

As for RRIRCRPPRLPRPRPRPYFVPRP, the “shrunken log2 fold change” value is -1.13.

As to RRIRRRPPRLPRPRPRPASYPRP, the “shrunken log2 fold change” value was -0.111.

Take RRIRARPPRLPRPRPRPCQSPRP: the “shrunken log2 fold change” value is -0.0122.

Regarding RRIRRRPPRLPRPRPRPCDHPRP, the “shrunken log2 fold change” value was determined as 0.0118.

Consider RRIRPRPPRLPRPRPRPYAIPRP, for which the “shrunken log2 fold change” value is -0.219.

RRIRKRPPRLPRPRPRPHCRPRP: the “shrunken log2 fold change” value was -0.022.

On to RRIRKRPPRLPRPRPRPEMEPRP, for which the “shrunken log2 fold change” value turned out to be 3.59.
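Further: peptides expressed intracellularly from a pBAD plasmid library in pooled LB shake-flask culture, induced with 0.3% L-arabinose, DNA abundance read by NGS, three biological replicates, DESeq2 with apeglm shrinkage.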
